Data on three molecules can be found in patent EP4578877A1 (Nanjing Leads Biolabs Co., Ltd., dated 2025).

Where a chain is given by its changes, count along the chain named. Names may count otherwise.

Assay [1] concerns the target recombinant human FAP protein (Sino Biological, Cat# 10464-H07H) (human) (UniProt Q12884). Briefly: ELISA on immobilized human FAP; antibody stored at 40 °C for 0 weeks. A general note: In an ELISA, binding on a coated surface is turned into a signal by an enzyme label.
The target is the same in assay [2]. Briefly: ELISA on immobilized human FAP; antibody stored at 40 °C for 4 weeks, relative to 0 weeks.
For assay [3] the target is unchanged. In words: ELISA on immobilized human FAP; antibody stored at 40 °C for 2 weeks, relative to 0 weeks.
In assay [4] the target is T1, cynomolgus FAP protein expressed on 293T cells (293T-cynomolgus FAP) (cynomolgus, UniProt Q12884 1-760 (human entry)).
T1 sequence: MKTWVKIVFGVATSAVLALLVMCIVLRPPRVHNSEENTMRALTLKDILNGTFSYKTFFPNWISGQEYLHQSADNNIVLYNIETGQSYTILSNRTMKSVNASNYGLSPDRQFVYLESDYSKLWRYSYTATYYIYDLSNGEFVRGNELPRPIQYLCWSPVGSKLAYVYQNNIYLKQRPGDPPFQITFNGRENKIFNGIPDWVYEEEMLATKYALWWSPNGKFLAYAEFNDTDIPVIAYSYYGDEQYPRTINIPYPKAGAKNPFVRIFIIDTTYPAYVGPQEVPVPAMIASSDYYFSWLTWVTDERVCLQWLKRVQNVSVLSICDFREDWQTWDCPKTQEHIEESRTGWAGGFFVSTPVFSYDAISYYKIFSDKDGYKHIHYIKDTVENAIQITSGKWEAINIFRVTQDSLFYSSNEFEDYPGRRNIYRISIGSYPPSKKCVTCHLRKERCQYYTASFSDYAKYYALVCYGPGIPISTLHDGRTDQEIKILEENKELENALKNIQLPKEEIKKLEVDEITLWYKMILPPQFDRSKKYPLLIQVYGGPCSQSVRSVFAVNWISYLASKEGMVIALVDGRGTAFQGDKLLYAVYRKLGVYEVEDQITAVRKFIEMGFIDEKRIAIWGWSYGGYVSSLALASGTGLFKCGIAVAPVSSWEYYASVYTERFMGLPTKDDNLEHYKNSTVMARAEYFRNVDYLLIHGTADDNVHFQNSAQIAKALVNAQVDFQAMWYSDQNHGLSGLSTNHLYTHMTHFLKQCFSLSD
Briefly: flow cytometry on 293T-cynomolgus FAP cells.

The target in assay [5] is T2, human FAP protein expressed on 293T cells (293T-human FAP) (human, UniProt Q12884 1-760).
T2 sequence: T1 sequence with P29S, F261V, D417E
In words: flow cytometry on 293T-human FAP cells.

In assay [6] the target is T3, recombinant human FAP protein (Sino Biological, Cat# 10464-H07H) (human, UniProt Q12884 26-760).
T3 construct: Bought protein
T3 sequence: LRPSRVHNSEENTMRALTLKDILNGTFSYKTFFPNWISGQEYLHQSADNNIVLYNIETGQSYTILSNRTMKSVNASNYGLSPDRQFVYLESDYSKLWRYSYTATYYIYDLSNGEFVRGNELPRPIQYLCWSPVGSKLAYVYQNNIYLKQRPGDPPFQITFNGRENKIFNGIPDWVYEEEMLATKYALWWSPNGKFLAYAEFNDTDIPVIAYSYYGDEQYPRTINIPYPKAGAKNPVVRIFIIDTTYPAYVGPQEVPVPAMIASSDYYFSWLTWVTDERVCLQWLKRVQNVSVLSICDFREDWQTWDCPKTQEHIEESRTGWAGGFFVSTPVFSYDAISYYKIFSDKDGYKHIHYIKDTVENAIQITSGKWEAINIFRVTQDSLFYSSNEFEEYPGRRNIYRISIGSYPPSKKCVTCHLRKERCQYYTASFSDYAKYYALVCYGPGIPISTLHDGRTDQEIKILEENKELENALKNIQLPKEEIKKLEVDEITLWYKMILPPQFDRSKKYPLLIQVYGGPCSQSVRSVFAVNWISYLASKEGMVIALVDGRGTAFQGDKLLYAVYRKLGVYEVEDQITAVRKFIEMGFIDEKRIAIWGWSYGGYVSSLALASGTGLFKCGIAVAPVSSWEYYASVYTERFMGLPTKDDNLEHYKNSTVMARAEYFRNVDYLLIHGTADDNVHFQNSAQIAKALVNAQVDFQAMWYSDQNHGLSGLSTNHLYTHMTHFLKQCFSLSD
Briefly: ELISA, human FAP protein immobilized on plate.

B1: humanized anti-FAP antibody huF19-LG (antibody, human IgG1, kappa, V domains shown)
VH: QVQLVQSGAEVKKPGASVKVSCKASGYTFTEYTIHWVRQATGQGLEWIGGINPNNGIPNYNQKFKGRATMTVGTSISTAYMELSSLRSEDTAVYFCARRRIAYGYDEGHAMDYWGQGTLVTVSS
VL: DIQMTQSPSSLSASVGDRVTITCKSSQSLLYSRNQKNYLAWFQQKPGKAPKLLIFWASTRESGVPSRFTGSGFGTDFTLTISSLQPEDFATYYCQQYFSYPLTFGQGTKLEIKR
notes: Full-length human IgG1/kappa; expressed in ExpiCHO-S
As to B1, the ELISA Relative activity in assay [1] worked out at 100%; in assay [2] it was 89.9%; in assay [3] it was 93.8%. Further, the binding result in assay [4] and in assay [5] was “binds” each time.

B2: sibrotuzumab (humanized reference anti-FAP antibody) (antibody, human IgG1, kappa, V domains shown)
VH: B1 VH with A24T, G26R, T41P, G44R, A68V, M70I, G73D, I76A, F95Y
VL: DIVMTQSPDSLAVSLGERATINCKSSQSLLYSRNQKNYLAWYQQKPGQPPKLLIFWASTRESGVPDRFSGSGFGTDFTLTISSLQAEDVAVYYCQQYFSYPLTFGQGTKVEIKR
notes: Full-length human IgG1/kappa
B2: the binding result in assay [6], in assay [4] and in assay [5] was “binds” throughout.

B3: mutant humanized FAP antibody huF19-LG-NGR (antibody, human IgG1, kappa, V domains shown)
VH: B1 VH with G56R
VL: B1 VL
notes: huF19-LG with G56R (Kabat) in HCDR2; also called optimized FAP antibody
Consider B3, for which the binding result in assay [4] and in assay [5] was “binds” in each case.
